In US6951919 (MOCHIDA PHARMACEUTICAL, dated 2005):

T1: Fas expressed endogenously on human Jurkat cells (human, UniProt P25445 26-335)
T1 sequence (looked up): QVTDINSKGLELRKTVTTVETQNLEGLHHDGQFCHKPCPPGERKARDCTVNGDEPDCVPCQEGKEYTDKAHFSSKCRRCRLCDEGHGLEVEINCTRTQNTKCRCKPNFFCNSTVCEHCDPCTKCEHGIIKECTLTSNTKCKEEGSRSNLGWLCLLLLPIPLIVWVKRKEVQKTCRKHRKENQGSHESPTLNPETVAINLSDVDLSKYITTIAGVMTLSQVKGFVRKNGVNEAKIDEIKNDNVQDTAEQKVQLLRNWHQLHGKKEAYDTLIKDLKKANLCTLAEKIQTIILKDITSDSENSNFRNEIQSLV

T2: Fas on mouse W4 cells (mouse WR19L cell transformants that overexpress Fas) (UniProt P25446 22-327, limits assumed)
T2 sequence (looked up): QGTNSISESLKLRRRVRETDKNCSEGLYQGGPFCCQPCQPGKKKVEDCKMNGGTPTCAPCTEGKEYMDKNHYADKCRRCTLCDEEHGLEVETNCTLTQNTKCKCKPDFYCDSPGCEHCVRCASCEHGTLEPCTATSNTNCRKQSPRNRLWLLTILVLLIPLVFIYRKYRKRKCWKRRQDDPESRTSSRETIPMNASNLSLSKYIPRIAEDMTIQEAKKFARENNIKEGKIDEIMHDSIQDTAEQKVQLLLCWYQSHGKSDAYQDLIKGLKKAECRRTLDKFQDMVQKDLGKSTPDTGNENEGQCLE

B1: human soluble Fas ligand, P48023 130-281 (ligand)
chain: QIGHPSPPPEKKELRKVAHLTGKSNSRSMPLEWEDTYGIVLLSGVKYKKGGLVINETGLYFVYSKVYFRGQSCNNLPLSHKVYMRNSKYPQDLVMMEGKMMSYCTTGQMWARSSYLGAVFNLTSADHLYVNVSELSLVNFEESQTFFGLYKL
B2: D4 deletion mutant of human FasL (amino acids 8-69 and 111-133 deleted) (ligand)
chain: MQQPFNYPLKKRGNHSTGLCLLVMFFMVLVALVGLGLGMFQLFHLQKEPSPPPEKKELRKVAHLTGKSNSRSMPLEWEDTYGIVLLSGVKYKKGGLVINETGLYFVYSKVYFRGQSCNNLPLSHKVYMRNSKYPQDLVMMEGKMMSYCTTGQMWARSSYLGAVFNLTSADHLYVNVSELSLVNFEESQTFFGLYKL

Columns and labels:
Assay in all cases: cell-based or functional assay
[1] = molecular target: Fas expressed endogenously on mouse primary hepatocytes (mouse), P25446
[2] = molecular target: T1, Fas expressed endogenously on human …
[3] = molecular target: T2, Fas on mouse W4 cells (mouse WR19L cell …)

| Binder | concentration of soluble FasL that blocks half of the cytotoxic activity of membrane-bound FasL (D4 mutant) on mouse hepatocytes at E/T 2.0, GOT release [1] [µg/mL] | specific killing of Jurkat cells at an E/T ratio of 3.0, 51Cr-release [2] [%] | specific killing of W4 cells at an E/T ratio of 5.0, 51Cr-release [3] [%] |
| --- | --- | --- | --- |
| B1 | 0.4 | – | – |
| B2 | – | ≥ 20 | ~50 |
